From US20260217797A1 (Takeda / Millennium, published 2026) come the findings set out here.

The Kd is the equilibrium constant for the complex coming apart. A high value points to weaker binding.

Assay [1] concerns the target SARS-CoV-2 Alpha (B.1.1.7) spike protein (on reporter virus particles) (SARS-CoV-2, UniProt P0DTC2 14-1273). Nature of the assay: cell-based or functional assay.
Assay [2] concerns the target SARS-CoV-2 Beta (B.1.351) spike protein (on reporter virus particles) (SARS-CoV-2, UniProt P0DTC2 14-1273). Nature of the assay: cell-based or functional assay.
In assay [3] the target is SARS-CoV-2 Epsilon (B.1.427/429) spike protein (on reporter virus particles) (SARS-CoV-2, UniProt P0DTC2 14-1273). As to the kind of experiment: cell-based or functional assay.
Assay [4] addresses SARS-CoV-2 Gamma (P.1) spike protein (on reporter virus particles) (SARS-CoV-2, UniProt P0DTC2 14-1273). Nature of the assay: cell-based or functional assay.
Assay [5] deals with SARS-CoV-2 B.1.1.7 N501Y (Alpha) RBD (SARS-CoV-2, UniProt P0DTC2 319-541). As to the kind of experiment: Octet BLI single point, monovalent. Background: In BLI a coated tip is dipped into the sample, and binding shifts an interference pattern.
Assay [6] addresses SARS-CoV-2 B.1.351 (Beta) RBD (SARS-CoV-2, UniProt P0DTC2 319-541). As to the kind of experiment: Octet BLI single point, monovalent.
The target in assay [7] is SARS-CoV-2 P.1 Spike (Gamma) (SARS-CoV-2, UniProt P0DTC2 16-1213). As to the kind of experiment: Octet BLI single point, monovalent.
Assay [8] deals with SARS-CoV-2 L452R RBD (Epsilon) (SARS-CoV-2, UniProt P0DTC2 319-541). As to the kind of experiment: Octet BLI single point, monovalent.
Assay [9] addresses SARS-CoV-2 B.1.617.1 (Kappa) RBD (SARS-CoV-2, UniProt P0DTC2 319-541). As to the kind of experiment: Octet BLI single point, monovalent.
Assay [10] addresses SARS-CoV-2 RBD-mFc (SARS-CoV-2, UniProt P0DTC2 319-541). As to the kind of experiment: Octet BLI, IgG, avid.
For assay [11], the target named is SARS-CoV-2 Omicron (B.1.529) spike protein (on reporter virus particles) (SARS-CoV-2, UniProt P0DTC2 14-1273). Nature of the assay: cell-based or functional assay.
Assay [12] has as its target SARS-CoV-2 B.1.617.2 (Delta) RBD (SARS-CoV-2, UniProt P0DTC2 319-541). As to the kind of experiment: Octet BLI single point, monovalent.

B1: A-22 (antibody, V domains shown)
VH: not shown
VL: EIVLTQSPGTLSLSPGERATLSCRASQTVRSDLAWYQQKPGQAPRLLIYGASTRATDISDRFSGSGSGTEFTLTISSLQSEDFAVYYCQQYYEWPPHSDSFGGGTKVEIK
As to B1, the “PsV neutralization IC50” value in [1] was 1.53 µg/mL; in [2], 2.13 µg/mL; in assay [3] it was 1.49 µg/mL; in [4], 0.335 µg/mL. Moreover, the “PsV neutralization IC90” value is 9.54 µg/mL in assay [1], 12.8 µg/mL in assay [2], 25.3 µg/mL in [3] and 0.736 µg/mL in assay [4]. Moreover, the Kd in assay [5] is 0.35 nM; in [6], 0.25 nM; in assay [7] it was 0.258 nM; in assay [8], 0.756 nM; in assay [9] it was 0.218 nM.

B2: A-16 (antibody, V domains shown)
VH: QVQLVESGGGLVQPGRSLRLSCAASGFTFDDYAMHWVRQAPGKGLEWVSGISWNSGTIGYADSVKGRFIISRDNAKNSLYLQMNSLRGEDMALYYCGKDRKREDPSLGGMDVWGQGTTVTVSS
VL: SYELTQPPSVSVAPGQTARITCGGNNIGSKSVHWYQQKPGQAPVLVVYDDTDRPSGIPERFSGSNSGNTATLTISRVEAGDEADYYCQVWDSSSDHYVFGTGTKLTVL
As for B2, the Kd amounted to 0.081 nM in assay [10], 4.62 nM in assay [5], 6.05 nM in assay [6] and 4.83 nM in assay [7]. Further, the “PsV neutralization IC50” value was found to be 0.025 µg/mL in assay [1] and 0.103 µg/mL in [2]. Moreover, the results for the “PsV neutralization IC90” value in [1] and in assay [2] were 0.329 µg/mL and 0.905 µg/mL, respectively. Moreover, the “PsV IC50, Test 1” value in assay [11] is 0.19 nM.

B3: A-18 (antibody, V domains shown)
VH: EVQLLESGGGLVQPGGSLRLSCAASGFTFSRYWMHWVRQAPGKGLVWVSRINSDGSSTTYADSVKGRFTISRDNAKNTLYLQMNSLRAEDTAVYYCARELYYYDSRGAEEGEGWFDPWGQGTLVTVSS
VL: QSVLTQPPSVSGAPGQRVTISCTGISSNIGAGYDVHWYQQLPGTAPKLLIYGNSNRPSGVPDRFSASKSGTSAPLAITGLQAEDEADYYCQSSDRSLSGSVFGTGTKLTVL
Turning to B3, the Kd in assay [10] was 0.0757 nM; in assay [5], 1.03 nM; in assay [6], 0.444 nM; in assay [7], 0.553 nM; in [12], 0.649 nM; in [8], 1.22 nM. Further, the Kd in [9] was 0.714 nM. Besides, the “PsV neutralization IC50” value in assay [1] was found to be 0.316 µg/mL; in assay [2], 0.259 µg/mL. Moreover, the “PsV neutralization IC90” value is 2.04 µg/mL in assay [1] and 1.65 µg/mL in assay [2]. Besides, the “PsV IC50, Test 1” value in [11] is 1.96 nM. Further, the “PsV IC50, Test 2” value in assay [11] was 8.84 nM.

B4: A-9 (antibody, V domains shown)
VH: EVQLVESGGGLVKPGRSLRLSCAASGFTFADYAMSWFRQAPGKGLEWVGFIRSKPYGGTTEYAASVKGRFTISRDDSKSIAYLQMNSLKTEDTAVYYCSRDPWYCSGGDCYAVTGSWFDPWGQGTLVTVSS
VL: DIVLTQSPSSLSASVGDRVTITCQASQDIKKYLNWYQQKPGKAPKLLIYDVSNLETGVPSRFSGSGSGTDFTFTISSLQPEDVAIYYCQQYDNLPQTFGQGTKVDIK
As for B4, the equilibrium dissociation constant (Kd) in assay [10] was 0.147 nM; in [5], 10 nM; in [6], 17.8 nM; in [7], 15 nM; in assay [12] it was 12.9 nM; in [9], 6.28 nM. The “PsV neutralization IC50” value in assay [1] is 0.019 µg/mL; in assay [2] it was 0.028 µg/mL. The “PsV neutralization IC90” value in assay [1] amounted to 0.118 µg/mL; in [2], 0.184 µg/mL. Besides, the “PsV IC50, Test 1” value in [11] came to 20.8 nM.

B5: A-6 (antibody, V domains shown)
VH: QVQLVQSGGGVVQPGRSLRLSCAASGFTFSNFAMHWVRQAPGKGLEWVAVILYDGINKYYADSVKGRFTISRGNSKNTLSLQMNSLRAEDTAVYYCARAQNYYDRSGTLQLDAFDIWGQGTMVTVSS
VL: DIVMTQSPSSLSASVGDRVTITCRASQGIRNDLGWYQQKPGKAPKLLIYAASSLQSGVPSRFSGSGSGTDFTLTISSLQPEDFATYYCLQDYNYPLTFGGGTKVEIK
For the molecule B5, the Kd in assay [10] was 0.146 nM; in assay [5] it was 1.46 nM; in assay [7], 2.05 nM; in [8] it was 1.45 nM. Also, the “PsV neutralization IC50” value in assay [1] was 0.192 µg/mL; in assay [2], 0.171 µg/mL. Further, the “PsV neutralization IC90” value in assay [1] was 1.21 µg/mL; in [2], 1.47 µg/mL.
